Source: article PMC11791182, “Molecular mechanism targeting condensin for chromosome condensation” (The EMBO Journal, 2024)
Each block holds one binder with its values, some of them ahead of it.

Columns and labels:
Conditions in all cases: both partners purified
[1] = target: T1, Ycg1 (6–932, Δ499–555)-Brn1 (384–529) (S. cerevisiae, UniProt Q06680 6-932; P38170 384-529, Δ499–555); assay: co-IP; two purified recombinant proteins with anti-GFP-coupled dynabeads (GFP-Sgo1 variants held), 2.5 h; 25 mM HEPES pH 7.5, 500 mM NaCl, 10% glycerol, 1 mM DTT, 0.1% NP-40; silver-stained SDS-PAGE
T1 construct: Ycg1, condensin HAWK subunit, S. cerevisiae, residues 6-932 with 499-555 deleted; Brn1, condensin kleisin subunit, S. cerevisiae, residues 384-529; Construct was a gift of Christian Haering (Kschonsak et al, 2017); also called Ycg1-Brn1; source: E. coli, purified (as described previously, Kschonsak et al, 2017)
T1 sequence (looked up) 1: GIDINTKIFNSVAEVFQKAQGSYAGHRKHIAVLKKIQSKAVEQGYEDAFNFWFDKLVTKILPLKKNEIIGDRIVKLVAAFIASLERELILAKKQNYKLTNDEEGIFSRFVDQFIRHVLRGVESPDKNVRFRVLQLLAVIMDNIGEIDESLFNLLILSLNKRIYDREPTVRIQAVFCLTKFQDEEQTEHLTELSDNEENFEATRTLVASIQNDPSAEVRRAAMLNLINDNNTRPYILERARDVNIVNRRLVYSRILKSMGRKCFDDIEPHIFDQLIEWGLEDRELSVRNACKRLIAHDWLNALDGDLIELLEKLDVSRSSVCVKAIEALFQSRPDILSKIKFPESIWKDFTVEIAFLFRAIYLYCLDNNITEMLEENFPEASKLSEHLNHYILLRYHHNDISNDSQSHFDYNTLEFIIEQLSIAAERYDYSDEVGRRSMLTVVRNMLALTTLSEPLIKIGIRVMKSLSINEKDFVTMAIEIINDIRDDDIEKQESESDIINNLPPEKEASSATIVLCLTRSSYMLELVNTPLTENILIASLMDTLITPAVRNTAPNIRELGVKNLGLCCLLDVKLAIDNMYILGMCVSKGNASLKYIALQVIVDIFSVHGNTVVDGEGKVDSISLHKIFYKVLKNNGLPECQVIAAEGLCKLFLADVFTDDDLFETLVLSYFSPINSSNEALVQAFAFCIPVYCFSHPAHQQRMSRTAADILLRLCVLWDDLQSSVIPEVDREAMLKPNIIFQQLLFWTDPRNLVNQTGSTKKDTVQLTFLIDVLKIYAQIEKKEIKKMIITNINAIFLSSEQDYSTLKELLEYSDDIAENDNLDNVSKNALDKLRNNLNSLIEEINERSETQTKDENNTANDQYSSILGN
T1 sequence (looked up) 2: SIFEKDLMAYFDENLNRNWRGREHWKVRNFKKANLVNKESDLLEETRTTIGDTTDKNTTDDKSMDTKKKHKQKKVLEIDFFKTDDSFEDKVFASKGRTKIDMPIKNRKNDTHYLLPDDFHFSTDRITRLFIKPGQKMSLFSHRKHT

[2] = target: T1, Ycg1 (6–932, Δ499–555)-Brn1 (384–529); assay: SEC; Sgo1 (350–590) with Ycg1 (6–932, Δ499–555)-Brn1 (384–529); Superdex200 10/300 24 ml column; 10 mM Tris-HCl pH 7.5, 250 mM NaCl, 5% glycerol, 0.001% Tween-20
[3] = target: T2, pentameric condensin holo-complex (S. cerevisiae, UniProt P38989 1-1170; Q12267 1-1418; P38170 1-754; Q06680 1-1035; Q06156 1-1176); assay: co-IP; two purified recombinant proteins with anti-V5-coupled dynabeads (V5-Sgo1 held), 2.5 h; 25 mM HEPES pH 7.5, 500 mM NaCl, 10% glycerol, 1 mM DTT, 0.1% NP-40; silver-stained SDS-PAGE and immunoblot
T2 construct: Smc2, condensin subunit, S. cerevisiae; Smc4, condensin subunit, S. cerevisiae; Brn1, condensin kleisin subunit, S. cerevisiae; Ycg1, condensin HAWK subunit, S. cerevisiae; Ycs4, condensin HAWK subunit, S. cerevisiae; Constructs were a gift (St-Pierre et al, 2009); also called Sc condensin complex; condensin (Brn1-6HA); source: purified from yeast (as described previously, Kschonsak et al, 2017); …

binding result [1]: binds
B1: GFP-Sgo1 (350–590) (domain or fragment, S. cerevisiae, UniProt Q08490 350-590, looked up)
chain: EVMPVSNMSSNSEISFTRTRRTRGKAVDYTLPSLRAKMRRPSEKLVDATTVIDIHDLQVSKRNRETSHKRKSLSQDSIPDEPQLREVVVSKDYGTPKGKKTEDEIHEDTAHLMTTSNNNSNNKNEKKLTSNNSPKKSSPLLDITNKSENKKKSTRTKKLFKNAIVNNLSDENSTTRPSKSSKGTSNNNNNYNNFDNNNSNINNVNNKSVSFRLNEDDLAVFDLFGNGKAVKHQPKTYRTKK
notes: Sgo1 (shugoshin), S. cerevisiae, residues 350-590; also called C-terminal region of Sgo1 (residues 350–590); C-Sgo1

binding result [2]: binds
binding result [3]: binds
B2: V5-Sgo1 (350–590) (domain or fragment, S. cerevisiae, UniProt Q08490 350-590, looked up)
chain: B1 chain
notes: Sgo1 (shugoshin), S. cerevisiae, residues 350-590; also called recombinant C-terminal region of Sgo1 (350–590); source: protease-deficient yeast strain (AM8184), galactose induced, purified (Ni2+ IMAC, Superose 6 gel filtration)

binding result [1]: binds
B3: GFP-Sgo1 (472-530) (domain or fragment, S. cerevisiae, UniProt Q08490 472-530, looked up)
chain: KNEKKLTSNNSPKKSSPLLDITNKSENKKKSTRTKKLFKNAIVNNLSDENSTTRPSKSS
notes: Sgo1 (shugoshin), S. cerevisiae, residues 472-530; also called Recombinant Sgo1 (472-530), wild type; source: E. coli BL21(DE3), purified (Ni-NTA resin, dialysis)

binding result [3]: binds
B4: V5-Sgo1 (FL) (natural protein, S. cerevisiae, UniProt Q08490 1-590, looked up)
chain: MPKRKIAPNKESSRRTVSHDDLTPQIQEFQNLMDLESQKVENIRQSYSRQNSLLAKDNSILKIKVNSLEKKISQLVQENVTLRSKTSISEAIYRERLSNQLQVIENGIIQRFDEIFYMFENVRKNENLPSSSLRTMLKRTSSRSRSCSLSSPTYSKSYTRLSNHENNLSHESSFNKDDGPDLEPKAKKRKSSRRQSMFVSTSLEPEDETGENEPMMENSSVEVPAESHESAQVEETIDALNPEEENSDSVSNFTNSIIEYSIPEENPTEPEHSSSKLEIFNDSTNMLSTVPSNPLPLPLPGPSATLPTTTSDASTVYPSSSSSTNSHPKTKIKHSMKPPRIELKKKVIDEVMPVSNMSSNSEISFTRTRRTRGKAVDYTLPSLRAKMRRPSEKLVDATTVIDIHDLQVSKRNRETSHKRKSLSQDSIPDEPQLREVVVSKDYGTPKGKKTEDEIHEDTAHLMTTSNNNSNNKNEKKLTSNNSPKKSSPLLDITNKSENKKKSTRTKKLFKNAIVNNLSDENSTTRPSKSSKGTSNNNNNYNNFDNNNSNINNVNNKSVSFRLNEDDLAVFDLFGNGKAVKHQPKTYRTKK
notes: Sgo1 (shugoshin), S. cerevisiae, full length; also called full-length V5-Sgo1; Sc Sgo1; source: protease-deficient yeast strain (AM8184), purified (Ni2+ IMAC, Superose 6 gel filtration)
